Reference: US20240025993A1, “CD19 BINDING MOLECULES AND USES THEREOF” (NOVARTIS AG, priority 2020, published 2024)
Positions count from the first letter of the chain named.

B1: anti-CD3 antibody designated as CD3hi (antibody, V domains shown)
VH: EVQLVESGGGLVQPGGSLKLSCAASGFTFNTYAMNWVRQASGKGLEWVGRIRSKYNNYATYYADSVKDRFTISRDDSKSTLYLQMNSLKTEDTAVYYCVRHGNFGNSYVSWFAYWGQGTLVTVSS
VL: QAVVTQEPSLTVSPGGTVTLTCRSSTGAVTTSNYANWVQQKPGQAPRGLIGGTNKRAPWTPARFSGSLLGDKAALTLSGAQPEDEAEYFCALWYSNLWVFGGGTKLTVL
B2: anti-CD3 antibody designated as CD3med (antibody, V domains shown)
VH: B1 VH with S79N, L81A, Y114H
VL: B1 VL with R23G, T31S, D71G, F89Y
B3: anti-CD3 antibody designated as CD3lo (antibody, V domains shown)
VH: B1 VH with L81A
VL: B1 VL

The binders below were run against CD3-Fc (assay: SPR (Biacore T200, 25 C), CD3-Fc captured on anti-hFc CM5 chip, antibody as analyte, 1:1 model).

Binder | Kd [nM]
B1 | 16
B2 | 30
B3 | 48
